Measured values taken from the supplement of paper PMC10126150.
± gives the standard deviation of the averaged measurements.

Tested on: ATP
Assay: switch fluorescence ratio, 500 uM ATP over buffer (Cy3 cluster intensity, sum of 5 cycles each) (fold (ratio)); higher = stronger signal-on switching upon ATP binding; sequences stand for … in TCGTCGGCAGCGTCAGATGTGTATAAGAGACAGTTTTTTTTTTTTTTTTTTTTTTTTT…TC
Details: aptamer strand: ATP DNA aptamer (quencher-CACCTGGGGGAGTATTGCGGAGGAAGG + anchor), 100 nM annealed; ATP concentration: 500 uM
Summary of the method: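 Per cluster, summed Cy3 intensity from the target cycles was divided by that from the buffer cycles to give the fluorescence ratio, then averaged per switch-domain sequence. Clusters outside 100-1000 RFU were excluded. The Cy3-labelled switching-strand clusters, on a modified Illumina MiSeq flow-cell, were annealed to 100 nM quencher-labelled ATP aptamer and imaged in selection buffer, then after 15 min with 500 uM ATP at 22 °C, for five cycles with NaOH stripping and re-annealing between them.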
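Further: ATP exposure 15 min at 22 °C before imaging.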

Sequence | switch fluorescence ratio
TTTCTCATTT | 0.972 ± 0.021
AGCATAATAT | 1.05 ± 0.012
CGTTCGGGGG | 1.01 ± 0.083
GCTTCTAGCT | 0.969 ± 0.011
ATTGTCTAGC | 0.999 ± 0.019
CCGGGGGTTG | 1.04 ± 0.057
TAGAGGAGGC | 0.996 ± 0.017
ATGTGTGTGG | 1.03 ± 0.017
TTTAAAAGCT | 1.07 ± 0.038
AAGCGGACGG | 0.9536 ± 0.0046
TGCGCTACGG | 1.08 ± 0.039
GTACGAACTT | 1.32 ± 0.061
TGGTTAATGC | 1.48 ± 0.1
CTGCACCATG | 1.01 ± 0.028
AACCGGCTTA | 0.999 ± 0.026
TTATGGTCGG | 0.984 ± 0.016
TAAAGCTTAA | 1.05 ± 0.041
ATCTCGTTA | 1.04 ± 0.053
TTCAGGGTCC | 1.03 ± 0.035
TTCTCAATGT | 1.08 ± 0.14
TTTGTTCTTT | 1.02 ± 0.081
CCTATGGGGG | 1.49 ± 0.66
TGGACCAAAA | 1.03 ± 0.013
AGGCAGTTCG | 0.996 ± 0.02
AGTTTCTTGT | 0.987 ± 0.03

Sequence | switch fluorescence ratio
CGTAAATTGT | 0.9672 ± 0.0039
AGATGGTTTC | 0.993 ± 0.042
TACGGGGCCT | 1.04 ± 0.064
GGGTGGTTTT | 1.01 ± 0.035
TTTCTCGGCT | 1 ± 0.035
ACGGAGTAAA | 0.99939 ± 0.00086
TGATTTAATA | 0.984 ± 0.025
ATAAGTGGTG | 0.976 ± 0.036
TTATAAGTTT | 1.03 ± 0.078
AGTAGGGCGG | 1 ± 0.033
TTTACATTGG | 1.01 ± 0.044
TTGTGGTAAG | 0.992 ± 0.022
AATCTGCTCG | 0.9864 ± 0.002
TTAGAAAGTC | 1.64 ± 0.93
CAAGTCCGTT | 1 ± 0.037
AGTTGGTGTT | 0.958 ± 0.026
AAAGTGGGCC | 0.9593 ± 0.0049
GAAATGTACG | 1.04 ± 0.021
TTAAATGCCT | 1.07 ± 0.028
GATGGGGCGT | 0.989 ± 0.055
CTGGGGAGGC | 1.06 ± 0.041
AAACTGTAAT | 1.08 ± 0.017
TATAAGGCTA | 1.02 ± 0.028
GGCGTGTCAG | 0.951 ± 0.039
CAGGCAAGCT | 1.061 ± 0.0071

Sequence | switch fluorescence ratio
AAATATGGGC | 0.961 ± 0.022
TAAGGGGTTC | 0.982 ± 0.022
TATCAGGGGG | 0.988 ± 0.026
GCGGAAAAAC | 1.02 ± 0.058
TGGCTTGCCG | 0.998 ± 0.027
TGAAATTACG | 1.03 ± 0.022
TGGTTTCGGT | 0.9903 ± 0.0017
AGTACTGGCA | 1.04 ± 0.061
TCTGTCTCTG | 1.01 ± 0.014
ATAGGGGAAT | 0.9872 ± 0.0072
GATTTGAGTG | 0.959 ± 0.027
CGTTGGGAGT | 0.988 ± 0.037
GAAAAGGGTT | 0.978 ± 0.032
TTTTTATCAA | 1.01 ± 0.041
ACAAACACTT | 1.158 ± 0.01
AAGAGGTAGT | 1.02 ± 0.015
AGGGCGTATT | 0.974 ± 0.026
AGCTCAATTA | 1.02 ± 0.03
GATGGTGAGA | 1.02 ± 0.065
ATGTTGTGGT | 0.987 ± 0.031
TTTTTAGGTG | 1.27 ± 0.2
GTGGGGGGCG | 1 ± 0.042
AAGGGTGGTC | 0.957 ± 0.012
CCCGGTATTG | 1.017 ± 0.007
CGAAGATTTT | 1.05 ± 0.022

Sequence | switch fluorescence ratio
ACGACGGGGG | 1.2 ± 0.23
GGGAAAAAAT | 1 ± 0.035
GCTGGACGTG | 0.9912 ± 0.0055
TGCTGTTGTA | 0.998 ± 0.033
ACTCATGTTG | 0.98166 ± 0.00011
TGGGTAATCA | 0.981 ± 0.036
GGGGGAAACT | 1.013 ± 0.0073
ATGAGCTATT | 1.03 ± 0.027
CTATGTGTCA | 0.977 ± 0.05
GATGCGGTTA | 0.988 ± 0.031
ATACAAATTT | 0.995 ± 0.047
TCAAGTGAGG | 1.01 ± 0.011
TGGATGCTTG | 1.01 ± 0.045
ATTAAATGAT | 0.9574 ± 0.002
TGGTGGATGG | 1.22 ± 0.29
GGGTGCAGCG | 0.993 ± 0.03
CTGGGAGAGC | 1.05 ± 0.053
TTACGGTGAA | 1.07 ± 0.072
AAAAGGGGGC | 1.01 ± 0.05
AGGTCGGAAT | 1.04 ± 0.028
TTAAGCACAT | 1.202 ± 0.011
AGGGGAATGT | 0.979 ± 0.026
GCGGGATATG | 0.994 ± 0.019
GTTTTTAGGC | 1.02 ± 0.094
CGTGATGGAG | 1.011 ± 0.009

Sequence | switch fluorescence ratio
GATACCGTGC | 1.18 ± 0.061
GGCTGGATCT | 0.975 ± 0.027
AAGTACTTGA | 1.12 ± 0.052
ATTGGGGCGC | 0.991 ± 0.041
GGGGAGGGTC | 1.016 ± 0.0055
CCGAGCGCTT | 4.69 ± 1.4
GAGTACTGTA | 1.14 ± 0.053
TCCTAGCACT | 1.65 ± 0.12
CGTGATCCCC | 1.17 ± 0.057
TGTACGGAGG | 1.04 ± 0.057
AAGGGGAGAG | 0.993 ± 0.018
CGGTTGTAGT | 0.993 ± 0.032
CCCCAGTCAA | 3.3 ± 0.43
ACGATCTCCC | 1.31 ± 0.098
TCGTGAGGTG | 1.02 ± 0.068
AAAGGTGATA | 1.03 ± 0.037
AAAGATGGCT | 0.98 ± 0.025
AGGGATCCTT | 1.02 ± 0.031
TCCATGGGAT | 1.007 ± 0.0014
TAACAGTGTG | 1.04 ± 0.046
TTAGAACTCC | 1.05 ± 0.036
AAGGAAGGAG | 1.03 ± 0.038
TATATTTTAG | 1.03 ± 0.021
ATGTGTGGAG | 1.013 ± 0.0048
AGAGGCTGTG | 1.01 ± 0.038

Sequence | switch fluorescence ratio
TTAACTTCGG | 0.9712 ± 0.0059
TTTTAAGGCT | 0.982 ± 0.024
GGCCCAGGAG | 1.01 ± 0.017
ATTCAAAAAA | 0.999 ± 0.039
TTCAAACGAG | 1.01 ± 0.031
GACCGGGTAA | 1.02 ± 0.033
GGGGGCGTTC | 1.015 ± 0.005
TGGGGTAAGG | 1.01 ± 0.022
CAGTGGGAAA | 1.01 ± 0.029
TCGCTGAGG | 0.9921 ± 0.00077
GCTGTGCACG | 1.02 ± 0.02
ACTCTTTATA | 1.04 ± 0.035
TTGCTTACAT | 1.02 ± 0.021
AATGGCCTA | 1.03 ± 0.046
GTGATAGATT | 1 ± 0.013
CTGCGGGGGG | 0.999 ± 0.015
ATCTTATCGT | 0.982 ± 0.027
AGATTATTTT | 1.01 ± 0.032
TCAACCGGGG | 1.079 ± 0.0021
TATTTTTGGC | 1.01 ± 0.018
TCATGTTTTG | 0.9969 ± 0.0032
TACGTTTGGG | 0.981 ± 0.031
GAGTTACATG | 1.02 ± 0.048
ATAGGCGCGG | 1.01 ± 0.02
ATATTCTGGG | 0.969 ± 0.015

Sequence | switch fluorescence ratio
ACAGCAGGGG | 1.25 ± 0.17
AATAAAGGAT | 1 ± 0.017
CGGGTCGGTT | 1.07 ± 0.1
TCCGTCTGTT | 1.003 ± 0.0052
GGTTTAGTGG | 1 ± 0.031
CAGTTAAGTA | 0.973 ± 0.028
CGAGGCCTGG | 1 ± 0.011
TCGAGGGGTA | 1 ± 0.07
AGGTTGAGAG | 0.9515 ± 0.0075
CAAAGCATCA | 1.05 ± 0.029
ATATTCGGCG | 0.975 ± 0.022
ACGGGCATCG | 1.02 ± 0.032
TTTTCGAGCT | 1.006 ± 0.0095
AATTCGGGGT | 1.005 ± 0.0024
TTTAAGTTGG | 0.983 ± 0.013
GTAAAGAGTT | 0.992 ± 0.011
ACTTGGACGC | 1.14 ± 0.044
TATGTAGGTA | 0.994 ± 0.047
GGGGCCTTGG | 1.01 ± 0.022
CACGGATTCA | 0.988 ± 0.043
CATAGAGTTG | 1.03 ± 0.084
CTTAGGATAG | 0.996 ± 0.0029
CCGGGGAGTG | 1.14 ± 0.25
AAGGGGAAAG | 0.998 ± 0.025
GACAGTCTCA | 1.02 ± 0.021

Sequence | switch fluorescence ratio
TTAGTGGGTA | 0.981 ± 0.082
CGTTTGCAGT | 1.02 ± 0.017
GATGGGTCGT | 1 ± 0.033
CAGGCCATGG | 1.03 ± 0.094
AAAGAGAGTA | 1.01 ± 0.038
TTAATGGCGG | 0.995 ± 0.02
TGTTAGGGAG | 0.987 ± 0.03
CGTGACGAGC | 1.12 ± 0.062
TTAACCGGTA | 1.02 ± 0.0039
GGGGACGGGT | 1.01 ± 0.14
TAAGGGTAAT | 0.973 ± 0.046
TGGTATATTA | 0.983 ± 0.027
ATGTTATTGG | 0.967 ± 0.033
TCGATAGCGA | 1.19 ± 0.028
TTCCCGGGTG | 1.53 ± 0.55
CGGAAACGTG | 1.01 ± 0.028
ACTCCGACCG | 1.72 ± 0.14
ACTAAAAGGT | 1.01 ± 0.012
AAGCAACAGT | 1.094 ± 0.0035
GTTTATAAAC | 0.973 ± 0.064
TTAGGCAGGT | 0.994 ± 0.048
GGGGATGTGT | 1 ± 0.035
AGTTATTTGC | 0.997 ± 0.024
GCTACTTTGG | 1.06 ± 0.048
TCATTAGGAA | 1 ± 0.035
